# Test results from the nanobody polyreactivity screen of Harvey et al. (2022).
# Test: yeast display, Sf9 membrane polyspecificity reagent, FACS + sequencing; frameworks hold sequencing errors
# Procedure, shortened: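 Galactose induction of a Saccharomyces cerevisiae BJ5465 synthetic nanobody display library ran 36–48 hours. The cells were then stained for 1 hour at 4 °C with 10% biotinylated, detergent-solubilized Sf9 membrane reagent, pulled down on streptavidin microbeads and FACS-sorted into low and high (top ~1%) gates on expression and reagent-binding fluorescence. Labels for polyreactivity follow the gate of origin.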
row,Sequence,polyreactivity (PSR sort gate)
1,QVQLVESGGGLVQAGGSLRLSCAASGRIFVTNAMGWYRQAPGKERELVASISSGGRTHYADSVKGRFTISRDNAKNTVYLQMNSLKPEDTAVYYCAKPPLYYYPALRGEEFYYWGQGTQVTVSS,low polyreactivity
2,QVQLVESGGGLVQAGGSLRLSCAASGRIFVTNDMGWYRQAPGKETELVAAINWNGDSTNYADSVKGRFTISRDNAKNTVYLQLNSLKPEDTAVYYCAAGWFTRDTLAGYDYWGKGTQVTVSS,low polyreactivity
3,QVQLVESGGGLVQAGGSLRLSCAASGRIFVVNAMGWYRQAPGNERELVAAISSSSDSTYYADSVKGRCTISRDNAKNTVYLQMNSLKPEDTAVYYCAADYHYDGYWIYDYWGQGTQVTVSS,high polyreactivity
4,QVQLVESGGGLVQAGGSLRLSCAASGRIFVVNTMGWYRQAPGKERELVAAISFSGVSTYYADSVKGRFTISRDNAKNTVYLQMISLKPEDTAVYYCAAVPYRQYPGGGYWGQGTQVTVSS,low polyreactivity
5,QVQLVESGGGLVQAGGSLRLSCAASGRIFVVYAMGWYRQEPGKERELVAAITGGGRTNYADSVKGRFTISRDNAKNTVYLHMNSLKPEATAVYYCAAGTRSDARRYYYWGQGTQVTVSS,low polyreactivity
6,QVQLVESGGGLVQAGGSLRLSCAASGRIFVWNAMGWYRQAPGKERELVAAITSSGGNTYYADSVKGRFTISRDNAKNNVYLQMNSLKQEDTAVYYCAAAGGAWARYRFNYWGQGTQVTVSS,high polyreactivity
7,QVQLVESGGGLVQAGGSLRLSCAASGRIFVWYDMGWYRQAPGKERELVAAISWGGGTNYADSVKGRFTISRDNAKNTVYLQMNSLKPEDTAVYYCAAAPSYYYFVRYVPSDIEGYWGQGTQVTVSS,low polyreactivity
8,QVQLVESGGGLVQAGGSLRLSCAASGRIFVYNAMGWYRQAPGKERELVAAITRGGSTYYADSVKGRFTISRDNAKNTVYLQMNSLNPEDTAVYYCASDYQRNDFRWYDYWGQGTQVTVSS,low polyreactivity
9,QVQLVESGGGLVQAGGSLRLSCAASGRIFVYNAMGWYRQAPGKERELVASITSSGGSTYYADSVKGRFTISRDNAKNTVYLQMNSLKPEDTAVYYCAADVQPDTRSTPEMDYWGQGTQVTVSS,low polyreactivity
10,QVQLVESGGGLVQAGGSLRLSCAASGRIFVYYAMGGYRQAPGKERELVATISTGGSTYYADSVKGRFTISRDNAKNTVYLQMNSLKPEDTAVYYCASDNVNLYLAYYYKGDYWGQGTQVTVSS,low polyreactivity
11,QVQLVESGGGLVQAGGSLRLSCAASGRIFVYYAMGWYRQAPGKERELVAAITYSVDSTYYADSVKGRFTISRDNAKNTVYLQKNSLKPEDTAVYYCATDVDWAYGYQYEDWGQGTQVPVSS,low polyreactivity
12,QVQLVESGGGLVQAGGSLRLSCAASGRIFVYYAMGWYRQAPGKERELVASISYSGASTYYADSVKGRFTISRDNAKNTVYLQMNSLKPEDTAVYYCNTDGDDFFHVIYDYWGQGTQVTVSS,low polyreactivity
13,QVQLVESGGGLVQAGGSLRLSCAASGRIFVYYTMGWYRQAPGKERELVAAISTGGRTHYADSVKGRFTISRDNAKNTVYLQMNSLKPEDTAVYYCNAASWNGGLFQTKYGYWGQGTQVTVSS,high polyreactivity
14,QVQLVESGGGLVQAGGSLRLSCAASGRIFWDNALGWYRKAPGTERELVAAISDSVVITYYADSVKGRFTISRDNAKNTVYLQMNSLKPEDSAVYYCAAGGWPYSGGWFFQPNYDYWGQGTQVTVSS,low polyreactivity
15,QVQLVESGGGLVQAGGSLRLSCAASGRIFWDNAMGWYRQAPVKERELVAAISGGASTYADSVKGRFTISRDNAKNTVYLQMNSLKAEDTSVYYCYAFQSPVEEEYYWGQGTQVTVSS,low polyreactivity
16,QVQLVESGGGLVQAGGSLRLSCAASGRIFWGNAMGWYRQAPGKERELVAAINWSGGSTYYADSVKGRFTISRDNAKNTVYLQMNTLKPEDTAVYYCAADANGIVRYYYWGQGTQVTVSS,low polyreactivity
17,QVQLVESGGGLVQAGGSLRLSCAASGRIFWGNAMGWYRQAPGKERELVAAITRRGGTTFYADSVKGRFTISRDNAKNTVYLQMNSLKPEDTAVYYCAARRYGQYDGYDSWGQGTQVTVSS,high polyreactivity
18,QVQLVESGGGLVQAGGSLRLSCAASGRIFWGSTMVWYRQAPGKEMELVAAITYRGATTYYADSVKGRFTISRDNAKNTVYLQMNSLKPEDTAVYYCAAEYYYTYGYWGQGTQVTVSS,high polyreactivity
19,QVQLVESGGGLVQAGGSLRLSCAASGRIFWHNAMGWYRQAPGKERELVAAISSRGGSTSYADSVKGRFTISRDNAKNTVYLQMNSLKPEDTAVYYCNARNQGYYRVWGYRGDYWGQGTQVTVSS,low polyreactivity
20,QVQLVESGGGLVQAGGSLRLSCAASGRIFWINAMGWYRQAPGKERELVAAITTDGGTTYYADSVKGRFTISRDNAKNTVYLQMNSLKPEDTAVYYCAADAAGQYWWQTYDYWGQGTQVTVSS,high polyreactivity

row,Sequence,polyreactivity (PSR sort gate)
1,QVQLVESGGGLVQAGGSLRLSCAASGRIFWINAMGWYRQATGKERELVATISSGSTSYADSVKGRFTISRDNAKNTVYLQMNSLKPEDTAVYYCAVTLRYTRSGAYDYWGQGTQVTVSS,low polyreactivity
2,QVQLVESGGGLVQAGGSLRLSCAASGRIFWPNAMGWYLQAPGKESEFVAAIRWSSDRTYYADSVKGRFTISRDNAKNTVYLQMNSLKPEYTAVYYCNAVRYVISKYDYWGHGTQVTVSS,high polyreactivity
3,QVQLVESGGGLVQAGGSLRLSCAASGRIFWPYAMGWSRQAPGKERELVAAITSGGSTYYADSVKGRFTISRDNAKNTVYLQMNSLKPEDTAVYYCAKRSSGVSVPVAYGGIKRYNSWGQGTQVTVSS,low polyreactivity
4,QVQLVESGGGLVQAGGSLRLSCAASGRIFWRNAMGWSRQAPGKERELVAAISSGGSTYYADSVKGRFTISRDNAKNTVYLQMNSLKPEDTAVYYCAARSSWRGVRYDHFERVYWGQGTQVTVSS,high polyreactivity
5,QVQLVESGGGLVQAGGSLRLSCAASGRIFWRYAMGWYRQAPGKERELVAAITGRTGSTNYADSVKGRFTISRDNAKNTVYLQMNSLKPEDTAVYYCAAAHHRWTGLYPSGYEFDYWGQGTQVTVSS,low polyreactivity
6,QVQLVESGGGLVQAGGSLRLSCAASGRIFWSNAMGWYRQAPGKERELVAAIRWSGGSTYYADSVKGRCTISRDNAKTTVYLQMNSLKPEDTAVYYCAASPYWSDWTKVDSWGQGTQVTVSS,low polyreactivity
7,QVQLVESGGGLVQAGGSLRLSCAASGRIFWSYDMGWYRQAPGKERELVASITSDGSTNYADSVKGRFTISRDNAKNTVYLQMNSLKPEDTAVYYCAARPYQYDPFAQGDGGKYDYWGQGTQVTVSS,low polyreactivity
8,QVQLVESGGGLVQAGGSLRLSCAASGRIFWTNDMGWYSKAPGKERELVAGITWRGGSTYYADSVKGRFTISRDNAKNTVYLQMNSLKPEDTAVYYCATRYRRVYTWYDYWGQGTQVTVSS,high polyreactivity
9,QVQLVESGGGLVQAGGSLRLSCAASGRIFWTYAMGWYRQAPGKERELVAAITSGGSTYYADSVKGRVTISRDNAKNTVYLLMNSLKPEDTAVYYCAATSYYYNFMEHDYWGQGTQVTVSS,high polyreactivity
10,QVQLVESGGGLVQAGGSLRLSCAASGRIFWWYAMGWYRQAPGKERELVASISSRGTSTYYADSVKGRFTISRDNAKHTVYLQMNSLKPEDTAFYYCAARRPGRTSQDRYKYDYWGQGTQVTVSS,high polyreactivity
11,QVQLVESGGGLVQAGGSLRLSCAASGRIFWYNALGWYRQAPGKEREVVAAISWRGSRTYYADSVKGRFTISRDNAKNTVYLQMNSLKPEETAVYYCAAVIKWTKDDYWGQGTQVTVSS,high polyreactivity
12,QVQLVESGGGLVQAGGSLRLSCAASGRIFWYYAIGWYRQAPGKEREIVAAISRSGGTTYYADSVKGRFTISRDNAKNTVYLQMNSLKPEDTAVYYCAAVYHAYTGYEAWYEYDYWGQGTQVTVSS,high polyreactivity
13,QVQLVESGGGLVQAGGSLRLSCAASGRIFWYYAMGWYRQAAGKERELVAAISSGTTKYADSVKGRFTISRDNAKNTVYLQMNSLKPEDTAVYYCNAAAYYPTNYGGYLFEYWGQGTQVTVSS,low polyreactivity
14,QVQLVESGGGLVQAGGSLRLSCAASGRIFWYYAMGWYRQAPGKERELVADISTGGSTNYADSVKGRFTISRDNAKNTVYLQMNSLKPEDTAVYYCATTVPVILYVTPSTYAVVGYEYWGQGTQVTVSS,low polyreactivity
15,QVQLVESGGGLVQAGGSLRLSCAASGRIFWYYAMGWYRQAPGKERELVATISYGGGNTYYADSVKGRFTISRDNAKNTVYLQMNSLKPEDTAVYDCARVPYAYLPYKPFQQYSYDYWGQGTQVTVSS,high polyreactivity
16,QVQLVESGGGLVQAGGSLRLSCAASGRIFWYYNMGRYRQAPGKERELVASINSDTGTYYADSVKGRFTISRDNAKNTVYLQMNSLKPEDTAVYYCTRDSESDANTFTTSGIDEPYDYWGQGTQVTVSS,low polyreactivity
17,QVQLVESGGGLVQAGGSLRLSCAASGRIFYANAMGWYRQAPGKERELVAAISSGGSTYYADSVKGRFTISRDNANNTVYLQMNSLKPEDTAVYYFAASTVGQTFSYYVDTYDYWGQGTQVTVSS,low polyreactivity
18,QVQLVESGGGLVQAGGSLRLSCAASGRIFYANAMGWYRQAPGKERELVAGISSGGITNYADSVKGRFTISRDNAKNTVYLQMNSLKPEDTAVYYCAVESWNRWRNRNDYWGQGSQVTVSS,low polyreactivity
19,QVQLVESGGGLVQAGGSLRLSCAASGRIFYAYAMGLYRQAPGKERELVAAITWSGGSTYYADSVKGRFTISRDNAKNTVYLQMNSLKQEDTAVYYCAADLRVKYVHTYSYVWYRYDYWGQGTQVTVSS,high polyreactivity
20,QVQLVESGGGLVQAGGSLRLSCAASGRIFYAYAMGWYRQAPGKERVFVAAISKRGGSTYYADSVKGRFTISRDNAKNTVYLQMNSRKPEDTAVYYCAADHEAIVRYDYWGQGTQVTVSS,low polyreactivity
